Test results: patent US20220002699A1

Biological target: SARS-CoV-2 spike (S) glycoprotein on live SARS-CoV-2 virus (SARS-CoV-2) (UniProt P0DTC2)
Assay: cell-based or functional assay

## Neg control
  in vitro virus neutralization EC50: > 10 µg/mL
